The target of data set [1] is T1, hnRNP H RRM domain (RRM1/2) (UniProt P31943 P31943:11-188).
T1 sequence: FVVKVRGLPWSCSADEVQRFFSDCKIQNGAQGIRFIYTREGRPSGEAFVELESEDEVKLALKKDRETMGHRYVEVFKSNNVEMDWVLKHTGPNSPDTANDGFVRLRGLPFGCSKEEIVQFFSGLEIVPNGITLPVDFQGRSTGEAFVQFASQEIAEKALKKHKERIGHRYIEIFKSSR
The data set is described as follows: 1H-15N HSQC NMR titration at 1:0.5, described as potent binding; 20 mM potassium phosphate, 70 mM KCl, pH 7.0, 25 C. Particulars: tags: His6 cleaved by 3C protease; pET-28a(+), E. coli BL21(DE3); 15N-labelled; G4. The procedure: (§1) Titration experiments were performed by recording a series of 2D ¹⁵N-HSQC spectra on uniformly ¹⁵N-labeled RRM domain (˜0.1 mM) in the presence of different amounts of DNA/RNA or compounds at 25° C. Protein samples and stock solutions of DNA/RNA were all prepared in 20 mM potassium phosphate buffer and 70 mM KCl, pH 7.0, 10% D₂O. All compounds were dissolved in isotope-labeled d₆-DMSO (Sigma-Aldrich) at about 50 mM concentration, working as stock solutions. To avoid chemical shift changes of protein samples resulted from d₆-DMSO addition, 10 μL d₆-DMSO was added into 500 μL of 0.1 mM protein solution in the NMR buffer (20 mM potassium phosphate buffer and 70 mM KCl, pH 7.0, 10% D₂O) and then the 2D HSQC was recorded as a reference.

For data set [2], the target named is T1, hnRNP H RRM domain (RRM1/2). As to the kind of experiment: 1H-15N HSQC NMR titration at 1:0.5; 20 mM potassium phosphate, 70 mM KCl, pH 7.0, 25 C. Particulars: tags: His6 cleaved by 3C protease; pET-28a(+), E. coli BL21(DE3); 15N-labelled; G4. The procedure: as §1

On to GGGGCCGGGGCCGGGGCCGGGGCC (structured_DNA) [DNA (G4C2)4 G4], for which the binding result in data set [1] is recorded as “binds”.

Regarding GGGGCCGGGGCC (ssRNA) [RNA (G4C2)2 G4], the binding result in data set [2] is “binds”.

Values taken from patent US20220112180, “NOVEL COMPOUNDS AS POTENTIAL THERAPEUTIC AGENTS TARGETING VARIOUS NEURODEGENERATIVE DISEASES” (The Hong Kong University of Science and Technology, published 2022).
